Assays:
[1] = system: EO771 mammary tumor cells; assay: EdU assay; format: cell-based, mouse; conditions: inhibitor applied with iTS CM
Description: (§1) EdU assays. Two thousand cells were seeded in 96-well plates on day 1, CM was added on day 2, and cellular proliferation was examined using a fluorescence-based cell proliferation kit (CLICK-IT™ EdU ALEXA FLUOR™ 488 Imaging Kit; Thermo-Fisher, Waltham, MA, USA). After fluorescent labeling, the number of fluorescently labeled cells were counted and the ratio to the total number of cells was determined.
(§2) EdU assay. Using a procedure previously reported, approximately 1,000 cells were seeded in 96-well plates on day 1. CM was added on day 2 and cellular proliferation was examined with a fluorescence-based cell proliferation kit (CLICK-IT™ EdU ALEXA FLUOR™ 488 Imaging Kit; Thermo-Fisher, Waltham, MA, USA) on day 4. After fluorescent labeling, the number of fluorescently labeled cells was counted and the ratio to the total number of cells was determined.

[2] = system: EO771 mammary tumor cells; assay: TRANSWELL invasion assay; format: cell-based, mouse; conditions: inhibitor applied with iTS CM
Description: (§3) Invasion assay. The invasion capacity of cancer cells was determined using a 24-well plate, TRANSWELL® chambers (Thermo Fisher Scientific, Waltham, MA, USA) with […] pore size and MATRIGEL™. Cell invasion was measured in TRANSWELL® chambers with a coating including MATRIGEL™ (100 μg/ml). The cells in 200 μL serum-free DMEM were placed on the upper chamber and 800 μL iTS CM was added in the lower chamber. After 24 h, the cells that had invaded the lower side of the membrane were stained with Crystal Violet. At least five randomly chosen images were taken under a microscope, and the average number of stained cells that represented the relative invasion was determined.

[3] = system: 4T1.2 mouse mammary tumor cells; assay: Tumor selectivity from MTT-based viability (tumor vs non-tumor cells); format: cell-based
Excerpt: (§4) Variations in tumor selectivity among the predicted tumor-suppressing proteins. Tumor-suppressing proteins may inhibit the progression of tumor cells but not inhibit the progression of non-tumor cells. Using the MTT-based viability, tumor selectivity was defined as a ratio of (reduction in MTT-based viability of tumor cells) to (reduction in MTT-based viability of non-tumor cells). The tumor selectivity may be above one to remove tumor cells and a larger value may signify a reduction in the inhibition of the growth of non-tumor cells. The tumor selectivity was determined using three tumor cells (4T1.2 mouse mammary tumor cells, EO771 mammary tumor cells, and MDA-MB-231 breast cancer cells) and three non-tumor cells (adipose cells, MLO-A5 osteocytes, and murine MSCs). […] Table 2 provides the tumor selectivity of 4T1.2 Oct4 CM, 4T1.2 c-Myc CM, and 10 tumor-suppressing protein candidates.

4T1.2 cells [4] = assay: Western blot analysis; format: cell-based, mouse; conditions: for level of Kdm3a: 4T1.2 cells; for Lrp5, MMP9, Runx2, TGFβ, and Snail: recombinant protein applied extracellularly to 4T1.2 cells
Description: Western blot analysis. Cultured cells were lysed in a radio-immunoprecipitation assay (RIPA) buffer and proteins were fractionated by 10-15% SDS gels and electro-transferred to polyvinylidene difluoride (PVDF) transfer membranes (Millipore, Billerica, MA, USA). The membrane was incubated overnight with primary antibodies and then with secondary antibodies conjugated with horseradish peroxidase (Cell Signaling, Danvers, MA, USA). Antibodies against c-Myc, Oct4, Sox2, Klf4, Lrp5, Runx2, Snail, TGFβ, Eno1, Eef2, vinculin (Cell Signaling, Danvers, MA, USA), MMP9, NFATc1, cathepsin K (Santa Cruz, Dallas, TX, USA), TRAIL (Novus, Centennial, CO, USA), p53 (Invitrogen, Carlsbad, CA, USA), Hsp90ab1 (Abcam, Cambridge, UK), Kdm3a (Thermo-Fisher Scientific, Waltham, MA, USA) and β-actin as a control (Sigma, St. Louis, MO, USA) were employed. The level of proteins was determined using a SUPERSIGNAL™ west femto maximum sensitivity substrate (Thermo-Fisher Scientific, Waltham, MA, USA), and a luminescent image analyzer (LAS-3000, Fuji Film, Tokyo, Japan) was used to quantify signal intensities.

[5] = system: MDA-MB-231 breast cancer cells; assay: Tumor selectivity from MTT-based viability (tumor vs non-tumor cells); format: cell-based, human
Excerpt: as §4

adipose-derived MSCs = assay: MTT-based viability of non-tumor cells; format: cell-based, human
Excerpt: as §4

[6] = system: EO771 mammary tumor cells; assay: Tumor selectivity from MTT-based viability (tumor vs non-tumor cells); format: cell-based, mouse; conditions: tumor cells EO
Excerpt: as §4

4T1.2 cells [7] = assay: TRANSWELL invasion assay; format: cell-based, mouse
Description: TRANSWELL® invasion assay. In a TRANSWELL® invasion assay, approximately 5×10^4 cells in 200 μL serum-free DMEM were placed on the upper TRANSWELL® chamber (Thermo Fisher Scientific, Waltham, MA, USA) with MATRIGEL™ (100 μg/ml), and 800 μL of CM was added in the lower chamber. After 48 h, the cells that had invaded the lower side of the membrane were stained with Crystal Violet. At least five randomly chosen images were taken, and the average number of stained cells was determined.

4T1.2 cells [8] = assay: EdU assay; format: cell-based, mouse
Description: as §2

EO771 cells = assay: Western blot analysis; format: cell-based, mouse
Description: Western blot analysis. Cultured cells were lysed in a radio-immunoprecipitation assay buffer with protease inhibitors (Santa Cruz Biotechnology, Santa Cruz, CA, USA) and phosphatase inhibitors (Calbiochem, Billerica, MA, USA). After cell lysis, proteins were fractionated by 10-15% SDS gels and electro-transferred to polyvinylidene difluoride (“PVDF”) transfer membranes (Millipore, Billerica, MA, USA). After blocking 1 h with a blocking buffer (Bio-Rad), the membrane was incubated overnight with primary antibodies and then with secondary antibodies conjugated with horseradish peroxidase for 45 min (Cell Signaling, Danvers, MA, USA). Antibodies against β-catenin, cleaved-caspase 3, Runx2, Snail, Enolase-1 (Cell Signaling, Danvers, MA, USA), MMP9 (Santa Cruz, Dallas, TX, USA), TRAIL (Novus, Centennial, CO, USA), p53 (Invitrogen, Carlsbad, CA, USA), and β-actin as a control (Sigma, St. Louis, MO, USA), were employed. The level of proteins was determined using a SUPERSIGNAL™ west femto maximum sensitivity substrate (Thermo Scientific, Waltham, MA, USA), and a luminescent image analyzer (LAS-3000, Fuji Film, Tokyo, Japan) was used to quantify signal intensities.

[9] = system: PANC-1 pancreatic tumor cells; assay: EdU assay; format: cell-based, human; conditions: PANC-1 cells, EdU-based
Description: as §1

[10] = system: TRAMP prostate tumor cells; assay: TRANSWELL invasion assay; format: cell-based
Description: as §3

EO771 tumor cells = assay: MTT-based viability; format: cell-based, mouse
[11] = system: PANC-1 pancreatic tumor cells; assay: TRANSWELL invasion assay; format: cell-based, human; conditions: PANC-1 cells
Description: as §3

[12] = system: EO771 mammary tumor cells; assay: Wound-healing scratch assay; format: cell-based, mouse; conditions: EO771 cells
Description: Two-dimensional motility assay. A wound-healing scratch motility assay was performed to measure 2-dimensional cell motility. Cells were seeded in 12-well plates, after cell attachment, a plastic pipette tip was used to scratch a gap on the cell layer. Images of the cell-free scratch zone were obtained via an inverted microscope at 0 h, and the areas newly occupied with cells were determined 48 h after scratching. The areas were quantified with Image J (National Institutes of Health, Maryland, USA).
Scratch assay. A wound-healing scratch assay was conducted to evaluate 2-dimensional migratory behavior. Approximately 4×10^5 cells were seeded in 12-well plates. After cell attachment, a plastic pipette tip was used to scratch a gap on the cell layer. After the removal of the floating cells, CM was added. Images of the cell-free scratch zone were collected at 0 h, and the areas newly occupied with cells were determined 24-48 h after scratching. The areas were quantified with IMAGE J™ (National Institutes of Health, Bethesda, MD, USA).

[13] = system: TRAMP prostate tumor cells; assay: EdU assay; format: cell-based; conditions: EdU-based
Description: as §1

| Molecule | Tumor selectivity ([3]; non-tumor cells A5) | Tumor selectivity ([3]; non-tumor cells MSC) | level of Kdm3a (4T1.2 cells [4]) | Lrp5, MMP9, Runx2, TGFβ, and Snail (4T1.2 cells [4]) | Tumor selectivity ([5]; non-tumor cells A5) | Tumor selectivity ([5]; non-tumor cells MSC) | MTT-based viability of non-tumor cells (adipose-derived MSCs) | Tumor selectivity ([6]; non-tumor cells A5) | Tumor selectivity ([6]; non-tumor cells MSC) | TRANSWELL invasion (4T1.2 cells [7]) | EdU-based proliferation (4T1.2 cells [8]) | further results |
| --- | --- | --- | --- | --- | --- | --- | --- | --- | --- | --- | --- | --- |
| Nc1cccc2c1C(=O)N(C1CCC(=O)NC1=O)C2=O (centres unmarked) [Pomalidomide] | – | – | – | – | – | – | – | – | – | – | – | inhibitory effect of β-catenin-overexpressing iTS CM on proliferation [1]: interfered with the inhibitory effect; inhibitory effect of β-catenin-overexpressing iTS CM on invasion [2]: interfered with the inhibitory effect |
| Hsp90ab1: heat shock protein 90 alpha family class B member 1 recombinant protein | 1.68 | 2.86 | reduced | downregulated | 1.02 | 1.74 | elevated | 1.55 | 2.65 | reduced | – | – |
| enolase 1: enolase 1 recombinant protein (protein, UniProt P17182 2-434, looked up) Alpha-enolase: SILRIHAREIFDSRGNPTVEVDLYTAKGLFRAAVPSGASTGIYEALELRDNDKTRFMGKGVSQAVEHINKTIAPALVSKKVNVVEQEKIDKLMIEMDGTENKSKFGANAILGVSLAVCKAGAVEKGVPLYRHIADLAGNPEVILPVPAFNVINGGSHAGNKLAMQEFMILPVGASSFREAMRIGAEVYHNLKNVIKEKYGKDATNVGDEGGFAPNILENKEALELLKTAIAKAGYTDQVVIGMDVAASEFYRSGKYDLDFKSPDDPSRYITPDQLADLYKSFVQNYPVVSIEDPFDQDDWGAWQKFTASAGIQVVGDDLTVTNPKRIAKAASEKSCNCLLLKVNQIGSVTESLQACKLAQSNGWGVMVSHRSGETEDTFIADLVVGLCTGQIKTGAPCRSERLAKYNQILRIEEELGSKAKFAGRSFRNPLAK | 1.48 | 3.30 | reduced | downregulated | 3.11 | 6.94 | elevated | 3.29 | 7.34 | reduced | reduced | expression of MMP9, Runx2, and Snail (EO771 cells): reduced; expression of p53 and TRAIL (EO771 cells): elevated; proliferation [9]: inhibited; invasion [10]: inhibited; MTT-based viability (EO771 tumor cells): significant decrease; invasion [11]: inhibited; scratch-based migration [12]: inhibited; proliferation [13]: inhibited |
| vinculin: vinculin recombinant protein (protein, UniProt Q64727 1-1066, looked up) Vinculin: MPVFHTRTIESILEPVAQQISHLVIMHEEGEVDGKAIPDLTAPVAAVQAAVSNLVRVGKETVQTTEDQILKRDMPPAFIKVENACTKLVQAAQMLQSDPYSVPARDYLIDGSRGILSGTSDLLLTFDEAEVRKIIRVCKGILEYLTVAEVVETMEDLVTYTKNLGPGMTKMAKMIDERQQELTHQEHRVMLVNSMNTVKELLPVLISAMKIFVTTKNSKNQGIEEALKNRNFTVEKMSAEINEIIRVLQLTSWDEDAWASKDTEAMKRALASIDSKLNQAKGWLRDPNASPGDAGEQAIRQILDEAGKVGELCAGKERREILGTCKMLGQMTDQVADLRARGQGASPVAMQKAQQVSQGLDVLTAKVENAARKLEAMTNSKQSIAKKIDAAQNWLADPNGGPEGEEQIRGALAEARKIAELCDDPKERDDILRSLGEIAALTSKLGDLRRQGKGDSPEARALAKQVATALQNLQTKTNRAVANSRPAKAAVHLEGKIEQAQRWIDNPTVDDRGVGQAAIRGLVAEGHRLANVMMGPYRQDLLAKCDRVDQLTAQLADLAARGEGESPQARALASQLQDSLKDLKAQMQEAMTQEVSDVFSDTTTPIKLLAVAATAPPDAPNREEVFDERAANFENHSGRLGATAEKAAAVGTANKSTVEGIQASVKTARELTPQVISAARILLRNPGNQAAYEHFETMKNQWIDNVEKMTGLVDEAIDTKSLLDASEEAIKKDLDKCKVAMANIQPQMLVAGATSIARRANRILLVAKREVENSEDPKFREAVKAASDELSKTISPMVMDAKAVAGNISDPGLQKSFLDSGYRILGAVAKVREAFQPQEPDFPPPPPDLEQLRLTDELAPPKPPLPEGEVPPPRPPPPEEKDEEFPEQKAGEVINQPMMMAARQLHDEARKWSSKGNDIIAAAKRMALLMAEMSRLVRGGSGTKRALIQCAKDIAKASDEVTRLAKEVAKQCTDKRIRTNLLQVCERIPTISTQLKILSTVKATMLGRTNISDEESEQATEMLVHNAQNLMQSVKETVREAEAASIKIRTDAGFTLRWVRKTPWYQ | 0.99 | 1.57 | reduced | downregulated | 1.13 | 1.43 | – | 0.67 | 0.89 | reduced | reduced | Tumor selectivity ([3]; non-tumor cells Adipose): 1.43; Tumor selectivity ([5]; non-tumor cells Adipose): 1.88; Tumor selectivity ([6]; non-tumor cells Adipose): 1.27 |
